Source: PMC5814804
Like-named read-outs stand apart in the source and are kept apart here.

How the values were obtained:
[1] = biological target: Thermotoga maritima TsaB2D2 complex (Thermotoga maritima) (UniProt Q9WZX7); assay: ITC
[2] = biological target: Thermotoga maritima TsaB2D2 complex (Thermotoga maritima) (UniProt Q9WZX7); assay: ITC; remark: listed apart in the source
[3] = biological target: Thermotoga maritima TsaB2D2 complex (Thermotoga maritima) (UniProt Q9WZX7); assay: SEC
[4] = biological target: Thermotoga maritima TsaB2D2 complex (Thermotoga maritima) (UniProt Q9WZX7); assay: SEC; remark: listed apart in the source
[5] = biological target: Thermotoga maritima TsaB2D2 complex (Thermotoga maritima) (UniProt Q9WZX7); assay: ITC; remark: listed apart in the source

Thermotoga maritima TsaB2D2 complex (Thermotoga maritima), sequence (Q9WZX7 whole entry, chain 1 of 2): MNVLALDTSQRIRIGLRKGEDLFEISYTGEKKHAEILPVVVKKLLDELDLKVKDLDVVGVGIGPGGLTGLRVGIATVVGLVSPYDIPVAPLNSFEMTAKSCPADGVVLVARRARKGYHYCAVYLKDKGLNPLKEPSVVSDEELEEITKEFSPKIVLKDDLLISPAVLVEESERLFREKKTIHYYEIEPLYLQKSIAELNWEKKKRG
Thermotoga maritima TsaB2D2 complex (Thermotoga maritima), sequence (Q9WXZ2 whole entry, chain 2 of 2, further chain): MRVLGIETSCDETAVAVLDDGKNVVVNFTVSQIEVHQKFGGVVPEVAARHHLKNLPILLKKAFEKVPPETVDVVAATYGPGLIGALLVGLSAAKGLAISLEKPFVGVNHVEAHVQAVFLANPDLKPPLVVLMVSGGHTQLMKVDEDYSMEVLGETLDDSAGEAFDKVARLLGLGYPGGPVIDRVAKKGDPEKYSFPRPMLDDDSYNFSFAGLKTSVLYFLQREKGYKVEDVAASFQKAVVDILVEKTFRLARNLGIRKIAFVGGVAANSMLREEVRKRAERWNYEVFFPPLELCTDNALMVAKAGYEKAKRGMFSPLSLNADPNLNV

Row | Kd [1] | dH [1] | stoichiometry N [1] | Kd [2] | dH [2] | stoichiometry N [2] | stoichiometry N (TsaE per TsaB2D2) [3] | stoichiometry N (TsaE per TsaB2D2) [4] | Kd [5] | dH [5] | stoichiometry N [5] | Substance
1 | 340 nM | 7.44 kcal/mol | 2.72 | 1100 nM | 1.54 kcal/mol | 2.16 | 1 | 2 | 1300 nM | 11.9 kcal/mol | 2.11 | Thermotoga maritima TsaE (natural protein)
2 | 2400 nM | 11.9 kcal/mol | 1.91 | – | – | – | – | – | 1100 nM | 9.3 kcal/mol | – | Thermotoga maritima TsaE E108A mutant (natural protein)
3 | 1100 nM | 10.3 kcal/mol | 2 | – | – | – | – | – | 1400 nM | 8 kcal/mol | – | Thermotoga maritima TsaE T42A mutant (natural protein)
